According to the supplement of paper PMC7877785:
± gives the uncertainty stated by the source.

Assay: self-splicing fitness, log relative to wild type (ln ratio); higher = more splicing; Tetrahymena group I intron in knt gene, E. coli kanamycin selection, DiMSum; sequences stand for … in CUCUCU…GGAGGGAAAAGUUAUCAGGCAUGCACCUGGUAGCUAGUCUUUAAACCAAUAGAUUGCAUCGGUUUAAAAGGCAAGACCGUCAAAUUGCGGGAAAGGGGUCAACAGCCGUUCAGUACCAAGUCUCAGGGGAAACUUUGAGAUGGCCUUGCAAAGGGUAUGGUAAUAAGCUGACGGACAUGGUCCUAACCACGCAGCCAAGUCCUAAGUCAACAGAUCUUCUGUUGAUAUGGAUGCAGUUCACAGACUAAAUGUCGGUCGGGGAAGAUGUAUUCUUCUCAUAAGAUAUAGUCGGACCUCUCCUUAAUGGGAGCUAGCGGAUGAAGUGAUGCAACACUGGAGCCGCUGGGAACUAAUUUGUAUGCGAAAGUAUAUUGAUUAGUUUUGGAGUACUCGUGGUCG
How it was run: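 Library with all eight P1ex-region intron nucleotides randomised, intron inside the knt kanamycin-resistance gene on pET-22b(+), in E. coli BL21(DE3). Cells grew overnight at 37°C or 30°C on LB agar with or without 25 μg/mL kanamycin (plus 100 μg/mL carbenicillin, 50 μM IPTG, 0.2% rhamnose), in six replicate transformations. Pooled colonies were amplicon-sequenced on Illumina HiSeq 2500. DiMSum fitness is the error-weighted combination of wild-type-normalised replicate fold changes, kanamycin versus none.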

Row | Sequence | self-splicing fitness (ln) (30 °C) | self-splicing fitness (ln) (37 °C)
1 | CGGGAGCAAUAUUACGCAGA | -3.67 ± 0.48 | -2.01 ± 0.29
2 | CGGGAGCAAUAUUACGCCCA | -2.28 ± 0.25 | -1.24 ± 0.28
3 | CGGGAGCAAUAUUACGCGAA | -2.47 ± 0.25 | -1.9 ± 0.23
4 | CGGGAGCAAUAUUACGCUCA | -4.3 ± 0.46 | -0.0948 ± 0.37
5 | CGGGAGCAAUAUUACGCUUA | -2.19 ± 0.21 | -2.87 ± 0.43
6 | CGGGAGCAAUAUUACGGACG | -2 ± 0.14 | -2.14 ± 0.23
7 | CGGGAGCAAUAUUACGGCUC | -3 ± 0.3 | -2.12 ± 0.42
8 | CGGGAGCAAUAUUACGGUCG | -2.77 ± 0.24 | -2.43 ± 0.27
9 | CGGGAGCAAUAUUACGGUCU | -2.67 ± 0.29 | -0.781 ± 0.45
10 | CGGGAGCAAUAUUACGGUGU | -3.71 ± 0.24 | -2.48 ± 0.25
11 | CGGGAGCAAUAUUACGUCAG | -3.08 ± 0.19 | -2.34 ± 0.24
12 | CGGGAGCAAUAUUACGUCCU | -2.54 ± 0.25 | 
13 | CGGGAGCAAUAUUACGUGGC | -2.62 ± 0.21 | -2.43 ± 0.36
14 | CGGUAGCAAUAUUACGAAAC |  | -2.72 ± 0.27
15 | CGGUAGCAAUAUUACGAAAG | -0.203 ± 0.16 | -0.493 ± 0.16
16 | CGGUAGCAAUAUUACGAGGU | -3.59 ± 0.25 | -2.03 ± 0.25
17 | CGGUAGCAAUAUUACGAUAC | -2.53 ± 0.22 | 
18 | CGGUAGCAAUAUUACGAUCC | -1.23 ± 0.22 | -1.56 ± 0.34
19 | CGGUAGCAAUAUUACGCUAC | -2.96 ± 0.47 | -2.93 ± 0.43
20 | CGGUAGCAAUAUUACGCUUA |  | -1.95 ± 0.2

Row | Sequence | self-splicing fitness (ln) (30 °C) | self-splicing fitness (ln) (37 °C)
21 | CGGUAGCAAUAUUACGUACU | -1.36 ± 0.15 | -0.578 ± 0.16
22 | CGGUAGCAAUAUUACGUCAA | -1.08 ± 0.29 | 
23 | CGGUAGCAAUAUUACGUCCC | -0.348 ± 0.48 | 0.985 ± 0.48
24 | CGGUAGCAAUAUUACGUGGU | -3.17 ± 0.21 | -2.3 ± 0.21
25 | CGUAAGCAAUAUUACGAAAA | -3.49 ± 0.31 | -1.49 ± 0.16
26 | CGUAAGCAAUAUUACGAUAC |  | -2.9 ± 0.47
27 | CGUAAGCAAUAUUACGAUUA | -2.03 ± 0.23 | -1.64 ± 0.32
28 | CGUAAGCAAUAUUACGCAUA | -3.73 ± 0.34 | -3.16 ± 0.21
29 | CGUAAGCAAUAUUACGCCGC | -1.76 ± 0.45 | -2.13 ± 0.42
30 | CGUAAGCAAUAUUACGCGAC | -3.62 ± 0.37 | -2.63 ± 0.42
31 | CGUAAGCAAUAUUACGCGGC | -2.84 ± 0.25 | -2.23 ± 0.3
32 | CGUAAGCAAUAUUACGCUAU | -3.13 ± 0.27 | -4.43 ± 0.42
33 | CGUAAGCAAUAUUACGCUCC | -2.95 ± 0.41 | -1.74 ± 0.48
34 | CGUAAGCAAUAUUACGGAUG | -0.733 ± 0.091 | -0.608 ± 0.12
35 | CGUAAGCAAUAUUACGGCUA | -2.35 ± 0.41 | -1.48 ± 0.33
36 | CGUAAGCAAUAUUACGGCUC |  | -0.977 ± 0.42
37 | CGUAAGCAAUAUUACGGGAG | -2.21 ± 0.22 | -2.81 ± 0.36
38 | CGUAAGCAAUAUUACGGGUU | -3.63 ± 0.17 | -2.98 ± 0.29
39 | CGUAAGCAAUAUUACGGUAC | -3.29 ± 0.28 | -1.78 ± 0.19
40 | CGUAAGCAAUAUUACGGUCG | -0.611 ± 0.12 | 0.212 ± 0.14
